From paper PMC11326354, “Mechanism of human α3β GlyR modulation in inflammatory pain and 2, 6-DTBP interaction” (Research Square, 2024)

B1: human glycine receptor α3 subunit, α3em construct (receptor, UniProt O75311-1 34-464, looked up)
chain: ARSRSAPMSPSDFLDKLMGRTSGYDARIRPNFKGPPVNVTCNIFINSFGSIAETTMDYRVNIFLRQKWNDPRLAYSEYPDDSLDLDPSMLDSIWKPDLFFANEKGANFHEVTTDNKLLRIFKNGNVLYSIRLTLTLSCPMDLKNFPMDVQTCIMQLESFGYTMNDLIFEWQDEAPVQVAEGLTLPQFLLKEEKDLRYCTKHYNTGKFTCIEVRFHLERQMGYYLIQMYIPSLLIVILSWVSFWINMDAAPARVALGITTVLTMTTQSSGSRASLPKVSYVKAIDIWMAVCLLFVFSALLEYAAVNFVSRQHKELLRFRRKRKNKTEAFDMDDEVRESRFSFTAYGMGPCLQAKDGMTPKGPNHPVQVMPKSPDEMRKVFIDRAKKIDTISRACFPLAFLIFNIFYWVIYKILRHEDIHQQQD
notes: glycine receptor α3 subunit, human, NCBI NP_006520.2; 9 residues of the M3/M4 loop (A329-S337) deleted; the model description counts 422 aa in all, from A1 to D431; Four copies of this subunit stand with one β subunit in the pentamer; also called GlyR α3
B2: human glycine receptor α3 subunit, α3S346Eem construct (phosphorylation mimic) (receptor, UniProt O75311-1 34-464, looked up)
chain: ARSRSAPMSPSDFLDKLMGRTSGYDARIRPNFKGPPVNVTCNIFINSFGSIAETTMDYRVNIFLRQKWNDPRLAYSEYPDDSLDLDPSMLDSIWKPDLFFANEKGANFHEVTTDNKLLRIFKNGNVLYSIRLTLTLSCPMDLKNFPMDVQTCIMQLESFGYTMNDLIFEWQDEAPVQVAEGLTLPQFLLKEEKDLRYCTKHYNTGKFTCIEVRFHLERQMGYYLIQMYIPSLLIVILSWVSFWINMDAAPARVALGITTVLTMTTQSSGSRASLPKVSYVKAIDIWMAVCLLFVFSALLEYAAVNFVSRQHKELLRFRRKRKNKTEAFDMDDEVREERFSFTAYGMGPCLQAKDGMTPKGPNHPVQVMPKSPDEMRKVFIDRAKKIDTISRACFPLAFLIFNIFYWVIYKILRHEDIHQQQD
notes: glycine receptor α3 subunit, human, NCBI NP_006520.2; α3em (A329-S337 deleted) with S346E; the model description counts 422 aa in all, from A1 to D431; Four copies of this subunit stand with one β subunit in the pentamer; also called α3emS346E
B3: human glycine receptor α3 subunit, α3_(FRET) construct (receptor, UniProt O75311-1 34-464, looked up)
chain: ARSRSAPMSPSDFLDKLMGRTSGYDARIRPNFKGPPVNVTVNIFINSFGSIAETTMDYRVNIFLRQKWNDPRLAYSEYPDDSLDLDPSMLDSIWKPDLFFANEKGANFHEVTTDNKLLRIFKNGNVLYSIRLTLTLSCPMDLKNFPMDVQTCIMQLESFGYTMNDLIFEWQDEAPVQVAEGLTLPQFLLKEEKDLRYCTKHYNTGKFTCIEVRFHLERQMGYYLIQMYIPSLLIVILSWVSFWINMDAAPARVALGITTVLTMTTQSSGSRASLPKVSYVKAIDIWMAVCLLFVFSALLEYAAVNFVSRQHKELLRFRRKRKNKTEAFDMDDEVRESRFSFTAYGMGPCLQAKDGMTPKGPNHPVQVMPKSPDEMRKVFIDRAKKIDTISRACFPLAFLIFNIFYWVIYKILRHEDIHQQQD
modifications: cysteine-reactive dye (LD555-MAL or LD655-MAL) at C358
notes: glycine receptor α3 subunit, human, NCBI NP_006520.2; α3em (A329-S337 deleted) with C41V and an A1 tag inserted between S380 and P381; Stood in the smFRET assay as part of the α3_(FRET)β_(FRET) pentamer, which was held on the glass by the GFP in β_(FRET) (βem with C115S); also called α_(FRET)
B4: human glycine receptor α3 subunit, α3S346E_(FRET) construct (receptor, UniProt O75311-1 34-464, looked up)
chain: ARSRSAPMSPSDFLDKLMGRTSGYDARIRPNFKGPPVNVTVNIFINSFGSIAETTMDYRVNIFLRQKWNDPRLAYSEYPDDSLDLDPSMLDSIWKPDLFFANEKGANFHEVTTDNKLLRIFKNGNVLYSIRLTLTLSCPMDLKNFPMDVQTCIMQLESFGYTMNDLIFEWQDEAPVQVAEGLTLPQFLLKEEKDLRYCTKHYNTGKFTCIEVRFHLERQMGYYLIQMYIPSLLIVILSWVSFWINMDAAPARVALGITTVLTMTTQSSGSRASLPKVSYVKAIDIWMAVCLLFVFSALLEYAAVNFVSRQHKELLRFRRKRKNKTEAFDMDDEVREERFSFTAYGMGPCLQAKDGMTPKGPNHPVQVMPKSPDEMRKVFIDRAKKIDTISRACFPLAFLIFNIFYWVIYKILRHEDIHQQQD
modifications: cysteine-reactive dye (LD555-MAL or LD655-MAL) at C358
notes: glycine receptor α3 subunit, human, NCBI NP_006520.2; α3S346Eem (A329-S337 deleted, S346E) with C41V and an A1 tag inserted between S380 and P381; Stood in the smFRET assay as part of the α3_(FRET)S346Eβ_(FRET) pentamer, which was held on the glass by the GFP in β_(FRET) (βem with C115S); also called α3_(FRET)S346E

Assays:
[1] = molecular target: human glycine receptor β subunit, βem construct (human); experiment: cryo-EM structure; heteromeric GlyR in 0.06% digitonin, 20 mM Tris-HCl pH 8.0, 200 mM NaCl, 2 mM glycine
[2] = molecular target: the molecule itself; experiment: as above
[3] = molecular target: human glycine receptor β subunit, βem construct (human); experiment: cryo-EM structure; heteromeric GlyR reconstituted in saposin nanodisc with brain polar lipids extract, 20 mM Tris-HCl pH 8.0, 200 mM NaCl, 2 mM glycine
[4] = molecular target: human glycine receptor β subunit, βem construct (human); experiment: cryo-EM structure; heteromeric GlyR in 0.06% digitonin, 2 mM glycine, with 500 μM 2, 6-DTBP throughout the purification and another 500 μM added before grid freezing
[5] = molecular target: the molecule itself; experiment: FRET or BRET; TIRF-based single-molecule FRET between LD555 and LD655 at C358 of different α3 subunits; labelled GlyR (0.7 nM) held on NeutrAvidin/biotin anti-GFP antibody-coated glass by the GFP in β; 50 mM HEPES-NaOH pH 7.4, 150 mM NaCl, 10 mM MgCl2, 22 °C; apo, with 2 mM glycine, with 2 mM glycine and 500 μM 2, 6-DTBP

human glycine receptor β subunit, βem construct (human), sequence (P48167 whole entry): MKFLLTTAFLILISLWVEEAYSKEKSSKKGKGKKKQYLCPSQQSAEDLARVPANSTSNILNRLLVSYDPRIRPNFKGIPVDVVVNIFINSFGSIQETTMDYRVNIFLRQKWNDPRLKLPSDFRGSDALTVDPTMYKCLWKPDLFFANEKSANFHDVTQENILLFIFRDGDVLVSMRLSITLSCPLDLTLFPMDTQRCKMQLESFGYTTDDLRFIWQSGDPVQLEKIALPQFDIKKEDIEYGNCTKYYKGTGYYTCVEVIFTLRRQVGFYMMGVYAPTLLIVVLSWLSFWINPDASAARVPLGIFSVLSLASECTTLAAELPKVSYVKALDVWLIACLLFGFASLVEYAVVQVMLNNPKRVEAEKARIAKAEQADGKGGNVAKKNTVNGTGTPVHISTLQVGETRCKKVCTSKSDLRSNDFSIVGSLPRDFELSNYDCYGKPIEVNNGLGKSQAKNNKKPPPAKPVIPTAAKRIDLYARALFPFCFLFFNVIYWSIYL

| Binder | stoichiometry N [1] | binding result [2] | stoichiometry N [3] | stoichiometry N [4] | binding result [5] |
| --- | --- | --- | --- | --- | --- |
| B1 | 4 α3 per β | binds | 4 α3 per β | – | – |
| B2 | 4 α3 per β | binds | – | 4 α3 per β | – |
| B3 | – | – | – | – | binds |
| B4 | – | – | – | – | binds |
